From patent US20230000998A1

Biological target: human TrkB receptor (overexpressed on TrkB-NFAT-bla CHO-K1 reporter cells) (human) (UniProt Q16620)
Assay: cell-based or functional assay

human TrkB receptor (overexpressed on TrkB-NFAT-bla CHO-K1 reporter cells) (human), sequence (Q16620 32-822): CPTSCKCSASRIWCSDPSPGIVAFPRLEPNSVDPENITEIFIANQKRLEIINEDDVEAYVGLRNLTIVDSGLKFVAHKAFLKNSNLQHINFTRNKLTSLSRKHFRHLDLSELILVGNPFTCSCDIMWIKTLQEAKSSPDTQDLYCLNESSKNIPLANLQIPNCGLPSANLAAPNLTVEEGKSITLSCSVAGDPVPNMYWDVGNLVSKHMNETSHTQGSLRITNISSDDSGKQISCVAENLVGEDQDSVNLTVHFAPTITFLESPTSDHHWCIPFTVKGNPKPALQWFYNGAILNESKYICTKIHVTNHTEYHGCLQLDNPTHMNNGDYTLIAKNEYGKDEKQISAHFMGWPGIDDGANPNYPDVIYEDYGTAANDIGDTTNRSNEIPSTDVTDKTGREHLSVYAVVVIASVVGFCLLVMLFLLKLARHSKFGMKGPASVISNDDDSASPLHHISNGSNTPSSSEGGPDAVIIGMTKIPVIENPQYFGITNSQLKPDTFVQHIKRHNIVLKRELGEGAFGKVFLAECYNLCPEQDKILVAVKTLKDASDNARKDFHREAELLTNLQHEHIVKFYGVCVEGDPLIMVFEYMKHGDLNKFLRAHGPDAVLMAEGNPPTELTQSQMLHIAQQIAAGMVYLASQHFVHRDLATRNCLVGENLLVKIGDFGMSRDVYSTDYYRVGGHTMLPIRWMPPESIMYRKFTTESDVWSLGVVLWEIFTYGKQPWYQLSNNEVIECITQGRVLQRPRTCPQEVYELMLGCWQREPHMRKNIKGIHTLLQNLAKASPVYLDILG

EC50 of beta-lactamase reporter response in TrkB-NFAT-bla CHO-K1 cells: 0.055 nM
Substance: BDNF (brain derived neurotrophic factor; Peprotech) (from UniProt P23560 129-247) (ligand)
